One assay has as its target T1, recombinant human LILRB2 (human, UniProt Q8N423 22-460, limits assumed).
T1 construct: also called ILT4
The experiment in a line: SPR, LILRB2 immobilised, scFv as analyte. On the technique in general: Surface plasmon resonance follows binding to a sensor surface in real time, without labels.

Assay [1] deals with T2, human LILRB2 on the cell surface (human, UniProt Q8N423 22-597).
T2 construct: whole, on cells; also called CHO K1 cells expressing human LILRB2; LILRB2 on HMDMs
The experiment in a line: flow cytometry, CHO cells expressing LILRB2; competitor HLA-G tetramer. A general note: A flow cytometer gives signals particle by particle.

Assay [2] deals with T3, LILRA1 on transiently transfected CHO cells (UniProt O75019 17-489, limits assumed).
T3 construct: whole, on cells; V5 tag at the N-terminus
The experiment in a line: CELISA, transiently transfected CHO cells; scFv cross-linked with an anti-framework antibody.

The target in assay [3] is T4, LILRA2 on transiently transfected CHO cells (UniProt Q8N149 24-483).
T4 construct: whole, on cells; V5 tag at the N-terminus
Described as above.

The target in assay [4] is T5, LILRA3 on transiently transfected CHO cells (UniProt Q8N6C8 24-439).
T5 construct: whole, on cells; V5 tag at the N-terminus
Described as above.

Assay [5] deals with T6, LILRA4 on transiently transfected CHO cells (UniProt P59901 24-499).
T6 construct: whole, on cells; V5 tag at the N-terminus
The description is as above.

Assay [6] concerns the target T7, LILRA5 on transiently transfected CHO cells (UniProt A6NI73 42-299).
T7 construct: whole, on cells; V5 tag at the N-terminus
The assay is described as above.

The target of assay [7] is T8, LILRA6 on transiently transfected CHO cells (UniProt Q6PI73 24-481).
T8 construct: whole, on cells; V5 tag at the N-terminus
Described as above.

Assay [8] deals with T9, LILRB3 on transiently transfected CHO cells (UniProt O75022 24-631, limits assumed).
T9 construct: whole, on cells; V5 tag at the N-terminus
The assay is described as above.

The target of assay [9] is T10, LILRB4 on transiently transfected CHO cells (UniProt Q8NHJ6 22-448).
T10 construct: whole, on cells; V5 tag at the N-terminus
The assay is described as above.

Assay [10] concerns the target T11, LILRB5 on transiently transfected CHO cells (UniProt O75023 24-590, limits assumed).
T11 construct: whole, on cells; V5 tag at the N-terminus
Described as above.

In assay [11] the target is T2, human LILRB2 on the cell surface. The experiment in a line: flow cytometry, CHO cells expressing LILRB2; competitor HLA-G tetramer; reference PRO2518.
Assay [12] has the same target. The experiment in a line: positive control of the LILRB2 ligand-blocking flow cytometry assay.
For assay [13], the target named is T12, human PD-L1 on the cell surface (human, UniProt Q9NZQ7 19-290). The experiment in a line: cell-based or functional assay.
Assay [14] deals with T12, human PD-L1 on the cell surface. The experiment in a line: cell-based or functional assay. This is another data set of the same source.
Assay [15] deals with T13, human CD47 on the cell surface (human, UniProt Q08722 19-323). The experiment in a line: cell-based or functional assay.
The target of assay [16] is T13, human CD47 on the cell surface. The experiment in a line: flow cytometry, human erythrocytes.
For a further assay, the target named is recombinant human CD47 (human, UniProt Q08722 19-139, limits assumed). The experiment in a line: SPR, antigen immobilised, antibody as analyte.
Another assay concerns the target T14, recombinant human PDL1 (human, UniProt Q9NZQ7 19-238, limits assumed).
T14 construct: SPR antigen; also called CD274; B7-H1
The experiment in a line: SPR, antigen immobilised, antibody as analyte.

Assay [17] deals with T13, human CD47 on the cell surface. The experiment in a line: flow cytometry, HT-29 cells (CD47+, no PD-L1).
Assay [18] shares this target. The experiment in a line: flow cytometry, CHO CD47 cells; competitor biotinylated SIRPα; column head prints EC50.
Assay [19] has the same target. The experiment in a line: flow cytometry, NCI-H292 cells (CD47+ PD-L1+); competitor biotinylated SIRPα; column head prints EC50.
Assay [20] has the same target. The experiment in a line: flow cytometry, CHO CD47 cells; competitor biotinylated SIRPα; by the text maximum inhibition normalised to PRO2777.
Assay [21] shares this target. The experiment in a line: flow cytometry, NCI-H292 cells; competitor biotinylated SIRPα; by the text maximum inhibition normalised to PRO2777.
Assay [22] concerns the target T15, LILRB2 (Q8N423-2) on transiently transfected CHO cells (UniProt Q8N423-2 22-597).
T15 construct: whole, on cells
The experiment in a line: CELISA, transiently transfected CHO cells.

Assay [23] deals with T3, LILRA1 on transiently transfected CHO …. The experiment in a line: CELISA, transiently transfected CHO cells.
The target of assay [24] is T4, LILRA2 on transiently transfected CHO …. The experiment in a line: CELISA, transiently transfected CHO cells.
Assay [25] has as its target T5, LILRA3 on transiently transfected CHO …. The experiment in a line: CELISA, transiently transfected CHO cells.
Assay [26] deals with T6, LILRA4 on transiently transfected CHO …. The experiment in a line: CELISA, transiently transfected CHO cells.
Assay [27] deals with T7, LILRA5 on transiently transfected CHO …. The experiment in a line: CELISA, transiently transfected CHO cells.
Assay [28] has as its target T8, LILRA6 on transiently transfected CHO …. The experiment in a line: CELISA, transiently transfected CHO cells.
The target in assay [29] is T16, LILRB1 on transiently transfected CHO cells (UniProt Q8NHL6 24-650).
T16 construct: whole, on cells; V5 tag at the N-terminus
The experiment in a line: CELISA, transiently transfected CHO cells.

Assay [30] addresses T9, LILRB3 on transiently transfected CHO …. The experiment in a line: CELISA, transiently transfected CHO cells.
The target in assay [31] is T10, LILRB4 on transiently transfected CHO …. The experiment in a line: CELISA, transiently transfected CHO cells.
For assay [32], the target named is T11, LILRB5 on transiently transfected CHO …. The experiment in a line: CELISA, transiently transfected CHO cells.

Results on four molecules are retold here after EP4574844A1 (Numab Therapeutics AG, dated 2025).

T2 sequence (Q8N423 22-597): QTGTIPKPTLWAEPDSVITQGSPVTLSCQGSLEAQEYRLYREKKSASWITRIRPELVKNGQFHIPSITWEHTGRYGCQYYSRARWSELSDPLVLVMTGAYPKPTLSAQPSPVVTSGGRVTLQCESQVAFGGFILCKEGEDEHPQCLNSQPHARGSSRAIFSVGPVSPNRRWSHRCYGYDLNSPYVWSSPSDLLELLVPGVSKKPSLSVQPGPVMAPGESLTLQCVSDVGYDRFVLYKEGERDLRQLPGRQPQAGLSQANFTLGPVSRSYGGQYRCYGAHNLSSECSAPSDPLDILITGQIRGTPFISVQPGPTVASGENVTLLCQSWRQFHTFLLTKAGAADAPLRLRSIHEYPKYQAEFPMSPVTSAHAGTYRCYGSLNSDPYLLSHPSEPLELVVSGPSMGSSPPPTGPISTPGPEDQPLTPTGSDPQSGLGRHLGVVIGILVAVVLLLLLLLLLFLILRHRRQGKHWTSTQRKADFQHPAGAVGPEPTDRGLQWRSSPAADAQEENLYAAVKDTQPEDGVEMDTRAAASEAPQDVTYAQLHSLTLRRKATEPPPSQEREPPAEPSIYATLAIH
T1 sequence (Q8N423 22-460 limits assumed): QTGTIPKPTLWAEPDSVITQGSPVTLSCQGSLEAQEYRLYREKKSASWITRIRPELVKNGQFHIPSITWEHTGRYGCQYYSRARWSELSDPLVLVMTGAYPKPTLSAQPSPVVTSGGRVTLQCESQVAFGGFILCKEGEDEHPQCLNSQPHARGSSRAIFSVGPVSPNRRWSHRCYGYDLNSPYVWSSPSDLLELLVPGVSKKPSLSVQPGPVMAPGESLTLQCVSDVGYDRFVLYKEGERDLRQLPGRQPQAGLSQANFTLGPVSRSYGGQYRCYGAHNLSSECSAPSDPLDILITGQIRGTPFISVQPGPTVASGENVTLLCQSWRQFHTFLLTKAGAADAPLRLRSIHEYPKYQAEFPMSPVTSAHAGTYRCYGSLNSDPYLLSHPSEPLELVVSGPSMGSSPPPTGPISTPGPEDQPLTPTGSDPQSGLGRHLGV
T6 sequence (P59901 24-499): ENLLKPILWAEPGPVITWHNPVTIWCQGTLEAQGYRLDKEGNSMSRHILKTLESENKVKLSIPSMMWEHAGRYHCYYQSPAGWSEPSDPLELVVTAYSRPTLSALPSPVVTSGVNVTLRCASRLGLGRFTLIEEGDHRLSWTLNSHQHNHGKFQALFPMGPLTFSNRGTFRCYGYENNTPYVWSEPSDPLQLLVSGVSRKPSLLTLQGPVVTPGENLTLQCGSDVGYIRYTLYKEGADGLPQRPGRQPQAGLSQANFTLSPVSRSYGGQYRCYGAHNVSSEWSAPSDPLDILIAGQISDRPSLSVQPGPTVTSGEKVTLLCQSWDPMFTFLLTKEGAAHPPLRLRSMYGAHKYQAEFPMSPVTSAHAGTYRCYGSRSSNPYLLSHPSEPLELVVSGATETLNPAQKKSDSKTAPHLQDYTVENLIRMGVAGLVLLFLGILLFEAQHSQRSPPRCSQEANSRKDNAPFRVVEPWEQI
T5 sequence (Q8N6C8 24-439): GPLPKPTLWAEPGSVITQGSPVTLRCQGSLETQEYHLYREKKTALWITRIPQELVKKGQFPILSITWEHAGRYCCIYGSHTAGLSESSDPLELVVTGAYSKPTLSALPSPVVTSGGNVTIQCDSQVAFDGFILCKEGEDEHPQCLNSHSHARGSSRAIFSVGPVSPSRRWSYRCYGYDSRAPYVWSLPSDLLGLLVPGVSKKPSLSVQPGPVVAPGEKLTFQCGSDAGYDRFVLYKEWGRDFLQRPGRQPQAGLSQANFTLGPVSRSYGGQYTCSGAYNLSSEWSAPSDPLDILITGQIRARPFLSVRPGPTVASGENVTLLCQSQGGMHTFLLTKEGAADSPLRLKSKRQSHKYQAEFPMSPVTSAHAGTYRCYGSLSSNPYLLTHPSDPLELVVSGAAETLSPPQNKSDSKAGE
T3 sequence (O75019 17-489 limits assumed): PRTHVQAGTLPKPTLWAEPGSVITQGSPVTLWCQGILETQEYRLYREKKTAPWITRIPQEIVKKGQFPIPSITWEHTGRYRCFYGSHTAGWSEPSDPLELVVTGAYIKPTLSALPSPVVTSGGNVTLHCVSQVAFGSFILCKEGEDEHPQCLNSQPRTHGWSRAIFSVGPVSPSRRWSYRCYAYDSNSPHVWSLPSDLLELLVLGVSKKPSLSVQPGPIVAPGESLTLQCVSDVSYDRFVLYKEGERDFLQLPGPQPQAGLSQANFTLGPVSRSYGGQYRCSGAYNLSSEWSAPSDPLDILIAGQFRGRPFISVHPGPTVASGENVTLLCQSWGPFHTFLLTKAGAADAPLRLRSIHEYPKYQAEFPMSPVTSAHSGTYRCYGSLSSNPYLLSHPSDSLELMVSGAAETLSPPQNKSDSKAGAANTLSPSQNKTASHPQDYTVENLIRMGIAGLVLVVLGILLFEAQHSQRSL
T11 sequence (O75023 24-590 limits assumed): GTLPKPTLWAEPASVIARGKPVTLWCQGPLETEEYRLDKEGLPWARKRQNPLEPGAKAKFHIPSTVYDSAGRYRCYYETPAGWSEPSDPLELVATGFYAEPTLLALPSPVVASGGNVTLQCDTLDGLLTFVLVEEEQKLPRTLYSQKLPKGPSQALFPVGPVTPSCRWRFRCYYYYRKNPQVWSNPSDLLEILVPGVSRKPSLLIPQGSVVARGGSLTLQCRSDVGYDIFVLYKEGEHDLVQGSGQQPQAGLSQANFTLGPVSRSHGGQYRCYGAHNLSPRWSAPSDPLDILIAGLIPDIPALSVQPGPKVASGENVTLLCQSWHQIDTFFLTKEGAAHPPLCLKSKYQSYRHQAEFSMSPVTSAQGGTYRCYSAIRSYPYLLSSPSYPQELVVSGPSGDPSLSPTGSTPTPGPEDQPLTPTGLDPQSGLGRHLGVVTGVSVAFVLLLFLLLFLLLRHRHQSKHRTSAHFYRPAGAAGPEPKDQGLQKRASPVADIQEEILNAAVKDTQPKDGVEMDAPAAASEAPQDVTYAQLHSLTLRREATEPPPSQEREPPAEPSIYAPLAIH
T4 sequence (Q8N149 24-483): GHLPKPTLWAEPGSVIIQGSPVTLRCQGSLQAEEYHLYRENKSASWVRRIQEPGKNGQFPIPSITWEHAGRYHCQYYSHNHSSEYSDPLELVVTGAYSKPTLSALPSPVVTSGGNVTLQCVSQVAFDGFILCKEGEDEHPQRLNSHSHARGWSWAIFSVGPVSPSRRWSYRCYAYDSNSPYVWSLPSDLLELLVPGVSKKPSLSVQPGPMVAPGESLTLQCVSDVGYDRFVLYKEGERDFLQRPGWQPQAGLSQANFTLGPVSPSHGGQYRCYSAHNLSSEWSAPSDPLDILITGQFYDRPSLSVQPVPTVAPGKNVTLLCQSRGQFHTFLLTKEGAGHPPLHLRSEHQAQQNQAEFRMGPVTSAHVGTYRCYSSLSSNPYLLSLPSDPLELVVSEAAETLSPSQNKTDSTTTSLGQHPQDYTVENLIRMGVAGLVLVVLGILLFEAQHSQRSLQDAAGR
T8 sequence (Q6PI73 24-481): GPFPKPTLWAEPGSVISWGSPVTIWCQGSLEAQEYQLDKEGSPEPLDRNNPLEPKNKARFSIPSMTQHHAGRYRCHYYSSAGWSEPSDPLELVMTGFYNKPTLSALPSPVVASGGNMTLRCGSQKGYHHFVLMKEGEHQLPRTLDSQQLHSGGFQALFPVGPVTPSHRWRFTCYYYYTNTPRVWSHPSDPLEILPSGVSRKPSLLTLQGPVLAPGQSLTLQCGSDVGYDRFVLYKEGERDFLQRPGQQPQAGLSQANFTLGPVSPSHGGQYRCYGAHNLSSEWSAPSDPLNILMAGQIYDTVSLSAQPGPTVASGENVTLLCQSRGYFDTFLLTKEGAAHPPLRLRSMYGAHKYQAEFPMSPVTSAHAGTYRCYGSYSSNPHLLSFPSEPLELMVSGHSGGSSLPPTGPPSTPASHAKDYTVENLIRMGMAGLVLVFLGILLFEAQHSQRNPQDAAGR
T7 sequence (A6NI73 42-299): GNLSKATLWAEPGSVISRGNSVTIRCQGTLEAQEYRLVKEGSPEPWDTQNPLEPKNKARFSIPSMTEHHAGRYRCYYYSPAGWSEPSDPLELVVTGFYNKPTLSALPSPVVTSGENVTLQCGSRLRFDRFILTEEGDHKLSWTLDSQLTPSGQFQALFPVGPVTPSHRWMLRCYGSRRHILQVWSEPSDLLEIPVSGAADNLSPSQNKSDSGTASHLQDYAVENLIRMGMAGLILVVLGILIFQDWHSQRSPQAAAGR
T15 sequence (Q8N423 22-597, one chain of several): as the sequence (Q8N423 22-597) above

B1: PRO3697 (scFv)
scFv: AFQLTQSPSSLSASVGDRVTITCQASQSIGTYLAWYQQKPGKPPKLLIYRGGTLASGVPSRFSGSGSGTDFTLTISSLQPEDFATYYCQSYDSSNTFGTGTKVTVLGGGGGSGGGGSGGGGSGGGGSQEQLVESGGGLVQPGRSLRLSCAASGFDLSADYMCWVRQAPGKGLEWIACIYIDDDNTYYATWAKGRFTISKDNSKNTVYLQMNSLRAEDSAVYFCARGYGVYTGAITYFTLWGQGTLVKVSS
notes: anti-LILRB2 scFv; in the CELISA selectivity test it was cross-linked with an anti-framework antibody; also called 69-06-G04-sc05
On to B1, for which, in the assay with recombinant human LILRB2, the dissociation constant Kd amounted to 0.131 nM. The off-rate (koff) in the assay with recombinant human LILRB2 turned out to be 0.000128 s⁻¹. The on-rate constant (kon) in the assay with recombinant human LILRB2 came to 974000 M⁻¹ s⁻¹. The IC50 in [1] was determined as 0.593 nM. For the same molecule, the binding result in assay [2], in assay [3], in assay [4], in assay [5], in assay [6] and in assay [7] was “no binding” in each case. The binding result in assay [8], in [9] and in assay [10] was “no binding” each time. The “Rel. max. inhibition % (rel. to J-19)” value in [11] is 99.5%.

B2: PRO2518 (antibody, human IgG4 S228P, kappa, V domains shown)
VH: QITLKESGPTLVKPTQTLTLTCTFSGFSLNTYAMGVSWIRQPPGKALEWLASIWWNGNKYNNPSLKSRLTVTKDTSKNQVVLTMTNMDPVDTATYYCAHSRIIRFTDYVMDAWGQGTLVTVSS
VL: DIQMTQSPSSLSTSVGDRVTITCRASEDIYNDLAWYQQKPGKAPKLLIYNANSLHTGVASRFSGSGSGTDFTFTISSLQPEDVATYFCQQYYDYPLTFGQGTKLEIKR
notes: also called J19.H1; J-19
As for B2, the binding result in assay [12] was “binds”.

B3: PRO3790 (bispecific antibody, human IgG1, kappa)
chain: DVQMTQSPSSLSASVGDRVTITCQASQSISSWVSWYQQKPGKPPKLLIYRGGYLESGVPSRFSASGSGTDFTLTISSLQPEDFATYYCQSTDSSTYGGAFGCGTKVTVLGGGGGSGGGGSGGGGSGGGGSQQVVESGGGLVQPGGSLRLSCAVSGIDLNSYAMTWVRQAPGKCLEWIGYIGSASSTYYASWASGRFTISKDNSKNTVYLQMNSLRAEDSAVYFCARGSTYINIWGQGTLVKVSSEPKSSDKTHTCPPCPAPELLGGPSVFLFPPKPKDTLMISRTPEVTCVVVDVSHEDPEVKFNWYVDGVEVHNAKTKPREEQYNSTYRVVSVLTVLHQDWLNGKEYKCKVSNKALPAPIEKTISKAKGQPREPQVYTLPPCREEMTKNQVSLSCAVKGFYPSDIAVEWESNGQPENNYKTTPPVLDSDGSFFLVSKLTVDKSRWQQGNVFSCSVMHEALHNHYTQKSLSLSPGK
heavy: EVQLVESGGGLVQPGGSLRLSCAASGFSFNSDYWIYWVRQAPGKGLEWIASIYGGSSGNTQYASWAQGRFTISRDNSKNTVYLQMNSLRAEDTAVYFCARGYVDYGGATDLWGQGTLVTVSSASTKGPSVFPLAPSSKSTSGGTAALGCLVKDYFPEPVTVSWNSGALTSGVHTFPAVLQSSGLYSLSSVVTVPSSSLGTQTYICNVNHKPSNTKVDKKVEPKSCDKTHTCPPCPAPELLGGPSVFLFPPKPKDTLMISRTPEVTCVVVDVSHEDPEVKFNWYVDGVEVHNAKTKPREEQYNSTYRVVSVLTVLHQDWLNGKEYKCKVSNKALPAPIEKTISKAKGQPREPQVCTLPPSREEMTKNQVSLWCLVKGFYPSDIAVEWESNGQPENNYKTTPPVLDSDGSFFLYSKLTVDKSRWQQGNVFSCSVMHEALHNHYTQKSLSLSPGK
light: DIQMTQSPASLSASVGDRVTITCQASQSIGTYLAWYQQKPGKPPKLLIYRAFILASGVPSRFSGSGSGTDFTLTISSLQPEDFATYYCQSNFYSDSTTIGPNAFGQGTKVEIKRTVAAPSVFIFPPSDEQLKSGTASVVCLLNNFYPREAKVQWKVDNALQSGNSQESVTEQDSKDSTYSLSSTLTLSKADYEKHKVYACEVTHQGLSSPVTKSFNRGEC
notes: anti-CD47 x PDL1: 70-26-B04-sc03 scFv on hole-Fc, 37-20-B03-sc09.1 Fab on knob-Fc
B3: in [13], the “EC50 [nM], PD-L1 / PD-1 transgenic NFAT reporter gene assay” value amounted to 0.272 nM. Also, in [14], the “PD-L1 driven EC50 [nM], phagocytosis of H292 cells” value was 0.04 nM. In addition, in assay [15], the “CD47 driven EC50 [nM], phagocytosis of H292 cells” value came out at 31.2 nM. The concentration for a half-maximal effect (EC50) was 98.8 nM in [16] and greater than 100 nM in [17]. Further, the values for the Kd with recombinant human CD47 and in the assay with recombinant human PDL1 were 35 nM and 0.0759 nM, respectively. Moreover, the koff was determined as 0.0235 s⁻¹ with recombinant human CD47 and 4.19e-05 s⁻¹ with recombinant human PDL1. Moreover, the values for the kon in the assay with recombinant human CD47 and with recombinant human PDL1 were 672000 M⁻¹ s⁻¹ and 552000 M⁻¹ s⁻¹, respectively. The IC50 came out at 110 nM in assay [18] and 0.068 nM in assay [19]. Also, the “Rel. maximum binding (max. MFI sample / max. MFI magrolimab)” value in assay [20] amounted to 87; in [21], 92.5.

B4: PRO3635 (antibody, human IgG4 S228P, kappa, V domains shown)
VH: QQLVESGGGRVQPGGSLRLSCAASGFSFTNNYYMCWVRQAPGKGLEWIACMLVGAWGNTYYASWANGRFTISKDNSKNTVYLQMNSLRAEDTATYFCARARDYTWTLGGDPETSGFNLWGQGTQVTVSS
VL: DVQMTQSPSSLSASVGDRVTITCQASQSIGSNLAWYQQKPGKPPKLLIYKASTLESGVPSRFSGSGSGTDFTLTISSLQPEDFATYYCQSTAGSSRSGNYGYVFGQGTKVEIKR
notes: anti-LILRB2 IgG4; also called 68-18-E11-sc02 IgG4; IgG variant of scFv PRO3064
Regarding B4, the binding result is on record as “binds” in assay [22]; “no binding (tested: up to 100 nM)” in assay [23]; “no binding (tested: up to 100 nM)” in [24]; “no binding (tested: up to 100 nM)” in [25]; “no binding (tested: up to 100 nM)” in assay [26]; “no binding (tested: up to 100 nM)” in assay [27]. Besides, the binding result in assay [28], in assay [29], in assay [30], in assay [31] and in [32] was “no binding (tested: up to 100 nM)” in each case.

By Kd is commonly meant a measure of binding affinity in units of concentration. A word on the koff: it is the rate constant with which the complex falls apart. One may read the kon as the second-order rate constant of association. What is called IC50 is the concentration that gives 50% inhibition. Usually EC50 stands for the concentration giving half of the maximal effect. Low values mean a more potent agent, high ones a less potent agent.
